Earlier results on one substance are cited in paper PMC12208613.

“And” between values parts separate entries of the source, which are not always exact repeats. Equal entries are not always repeated.

The target in the data set is CD7 (Homo sapiens) (UniProt P09564).
Chain of CD7 (Homo sapiens) (P09564 26-180): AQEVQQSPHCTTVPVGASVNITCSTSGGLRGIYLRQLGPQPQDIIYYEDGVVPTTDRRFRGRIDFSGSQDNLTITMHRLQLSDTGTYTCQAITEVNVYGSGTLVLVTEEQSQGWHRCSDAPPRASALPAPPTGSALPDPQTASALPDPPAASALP

Chain of K12 (Q8WVN6 29-145): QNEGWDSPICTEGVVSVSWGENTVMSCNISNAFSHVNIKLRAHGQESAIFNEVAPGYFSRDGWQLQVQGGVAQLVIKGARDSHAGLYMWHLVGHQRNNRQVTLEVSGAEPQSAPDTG

Usually Kd stands for the constant that tells how readily two partners part at equilibrium. Consider K12 (from UniProt Q8WVN6), for which the Kd is 0.01 µM and 0.038 µM.
